Laboratory results reported in PMC4314829, “Unraveling the kinetic diversity of microbial 3-dehydroquinate dehydratases of shikimate pathway” (AMB Express, 2015).

Key:
Settings in all cases: DHQ 0.08 to 1.0 mmol/L; assay buffer, pH and temperature not given
[1] = tested on: O=C1C[C@@](O)(C(=O)O)C[C@@H](O)[C@@H]1O; assay: purified protein
[2] = substrate: O=C1C[C@@](O)(C(=O)O)C[C@@H](O)[C@@H]1O; assay: OD234 microplate assay, Lineweaver-Burk; assay type: biochemical, Streptomyces acidiscabies
From the text: OD234 microplate assay, Lineweaver-Burk on DHQase 3016

[3] = substrate: O=C1C[C@@](O)(C(=O)O)C[C@@H](O)[C@@H]1O; assay: OD234 microplate assay, Lineweaver-Burk; assay type: biochemical, Ruminococcus champanellensis
From the text: OD234 microplate assay, Lineweaver-Burk on DHQase 3027

[4] = substrate: O=C1C[C@@](O)(C(=O)O)C[C@@H](O)[C@@H]1O; assay: OD234 microplate assay, Lineweaver-Burk; assay type: biochemical, Acetivibrio clariflavus
From the text: OD234 microplate assay, Lineweaver-Burk on DHQase 3025

[5] = substrate: O=C1C[C@@](O)(C(=O)O)C[C@@H](O)[C@@H]1O; assay: OD234 microplate assay, Lineweaver-Burk; assay type: biochemical, Psychromonas ingrahamii
From the text: OD234 microplate assay, Lineweaver-Burk on DHQase 3010

[6] = substrate: O=C1C[C@@](O)(C(=O)O)C[C@@H](O)[C@@H]1O; assay: OD234 microplate assay, Lineweaver-Burk; assay type: biochemical, Crystallibacter crystallopoietes
From the text: OD234 microplate assay, Lineweaver-Burk on DHQase 3012

[7] = substrate: O=C1C[C@@](O)(C(=O)O)C[C@@H](O)[C@@H]1O; assay: OD234 microplate assay, Lineweaver-Burk; assay type: biochemical, Alcanivorax borkumensis
From the text: OD234 microplate assay, Lineweaver-Burk on DHQase 3003

[8] = substrate: O=C1C[C@@](O)(C(=O)O)C[C@@H](O)[C@@H]1O; assay: OD234 microplate assay, Lineweaver-Burk; assay type: biochemical, Parageobacillus thermoglucosidasius
From the text: OD234 microplate assay, Lineweaver-Burk on DHQase 3021

[9] = substrate: O=C1C[C@@](O)(C(=O)O)C[C@@H](O)[C@@H]1O; assay: OD234 microplate assay, Lineweaver-Burk; assay type: biochemical, Thermodesulfobium narugense
From the text: OD234 microplate assay, Lineweaver-Burk on DHQase 3028

[10] = substrate: O=C1C[C@@](O)(C(=O)O)C[C@@H](O)[C@@H]1O; assay: OD234 microplate assay, Lineweaver-Burk; assay type: biochemical, Nocardia brasiliensis
From the text: OD234 microplate assay, Lineweaver-Burk on DHQase 3014

[11] = substrate: O=C1C[C@@](O)(C(=O)O)C[C@@H](O)[C@@H]1O; assay: OD234 microplate assay, Lineweaver-Burk; assay type: biochemical, Natranaerobius thermophilus
From the text: OD234 microplate assay, Lineweaver-Burk on DHQase 3026

[12] = substrate: O=C1C[C@@](O)(C(=O)O)C[C@@H](O)[C@@H]1O; assay: OD234 microplate assay, Lineweaver-Burk; assay type: biochemical, Halanaerobium hydrogeniformans
From the text: OD234 microplate assay, Lineweaver-Burk on DHQase 3024

[13] = substrate: O=C1C[C@@](O)(C(=O)O)C[C@@H](O)[C@@H]1O; assay: OD234 microplate assay, Lineweaver-Burk; assay type: biochemical, Metallosphaera cuprina
From the text: OD234 microplate assay, Lineweaver-Burk on DHQase 3030

[14] = substrate: O=C1C[C@@](O)(C(=O)O)C[C@@H](O)[C@@H]1O; assay: OD234 microplate assay, Lineweaver-Burk; assay type: biochemical, Paramagnetospirillum magneticum
From the text: OD234 microplate assay, Lineweaver-Burk on DHQase 3037

[15] = substrate: O=C1C[C@@](O)(C(=O)O)C[C@@H](O)[C@@H]1O; assay: OD234 microplate assay, Lineweaver-Burk; assay type: biochemical, Gluconobacter oxydans
From the text: OD234 microplate assay, Lineweaver-Burk on DHQase 3007

DHQase 3009 (Psychrobacter sp. PRwf-1)
Km [1]: 203.24 µM | Vmax [1]: 254 µM/min | kcat [1]: 31.7 s⁻¹ | kcat/Km [1]: 160000 M⁻¹ s⁻¹

B1: DHQase 3016 (Streptomyces acidiscabies) (protein)
chain: MPRTLANAPIMILNGPNLNLLGQRQPEIYGSDTLADVEALCVKAAATHGGTVDFRQSNHEGELVDWIHEARMDHCGIVINPGAYSHTSVAILDALNTCDGLPVIEVHISNIHKREAFRHHSYVSLRADGVIAGCGVQGYVFGVERVAALAGEGTARA
notes: full length, codon-optimised synthetic gene, pET28a His tag, E. coli BL21(DE3), Ni-NTA
Km [2]: 141.53 µM | Vmax [2]: 745 µM/min | kcat [2]: 212 s⁻¹ | kcat/Km [2]: 1.5e+06 M⁻¹ s⁻¹

B2: DHQase 3027 (Ruminococcus champanellensis 18P13 = JCM 17042) (protein)
chain: MRILVIHGPNLNLLGEREPGIYGKNDLAHVNGAILTRAKELGVECEVFQSNHEGEILVRLHEARHAFDGVVLNAGAYTHYSYAIRDAIAAIRIPCVEVHISNVHAREEFRHTSVIAPACLGVVCGFGGDSYLLALEGLVRHCAGQKTL
notes: as for B1
Km [3]: 255.54 µM | Vmax [3]: 360 µM/min | kcat [3]: 50.2 s⁻¹ | kcat/Km [3]: 200000 M⁻¹ s⁻¹

B3: DHQase 3025 (Acetivibrio clariflavus DSM 19732) (protein)
chain: MKKILIINGPNLNLLGTREKEVYGTETLDDIAKKVAEEAAKLNVNIEFFQSNHEGDIIDKIHAARGNTDAIIINPGAYTHYSIAIRDAIKAVEIPTIEIHLSNIHAREEFRSHSVIAPVCVGQICGFGSNSYILGLNAAALL
notes: as for B1
Km [4]: 368.46 µM | Vmax [4]: 353 µM/min | kcat [4]: 59.6 s⁻¹ | kcat/Km [4]: 160000 M⁻¹ s⁻¹

B4: DHQase 3010 (Psychromonas ingrahamii 37) (protein)
chain: MTQQIKLLVLNGPNLNLLGQREPEVYGSKTLDDIIKALTDEAALQNVALSHLQSNREYELIEKIHDAFEKIDFIIINPAAFTHTSVALRDALLGVNIPFIEVHLSNVHARESFRHHSYLSDIAQGVICGLGAKGYSFALQSAIGKLRNI
notes: as for B1
Km [5]: 202.55 µM | Vmax [5]: 48 µM/min | kcat [5]: 10.6 s⁻¹ | kcat/Km [5]: 50000 M⁻¹ s⁻¹

B5: DHQase 3012 (Arthrobacter crystallopoietes BAB-32) (protein)
chain: MGNMSEHSTGSSTRKLLVLNGPNLNLLGTREPQIYGSDTLEDAETLAARAAEAHGLAVECLQSNHEGVLIDAIHAARGTAAGIVINPGGYTHTSVALRDALSGVDLPVVEVHISNIHRREEFRHHSYISGIAVAVIAGAGISGYKFAVDLLASRL
notes: as for B1
Km [6]: 448.50 µM | Vmax [6]: 4000 µM/min | kcat [6]: 185 s⁻¹ | kcat/Km [6]: 410000 M⁻¹ s⁻¹

B6: DHQase 3003 (Alcanivorax borkumensis SK2) (protein)
chain: MITANNDKFARGPILASILVLHGPNLNLLGTREPDKYGHTTLADINQQLQEQASKAGHHLQHLQSNAEYELVECIHDAHTEGVDFIIINPAAFTHTSVALRDALLAVNIPFIEVHLSNVHARETFRHHSFFSDIAKGVICGLGAIGYALALTAALEQLDD
notes: as for B1
Km [7]: 210.71 µM | Vmax [7]: 80.4 µM/min | kcat [7]: 13.5 s⁻¹ | kcat/Km [7]: 60000 M⁻¹ s⁻¹

B7: DHQase 3021 (Parageobacillus thermoglucosidasius) (protein)
chain: MAHLLLINGPNLNLLGKREPHIYGSTTLDSLEQELISFANEHGAALTCFQSNHEGAIIDRIHEAEGKYDGIILNAGAFTHYSYAIRDAIASISIPVVEVHISNIHAREPFRHQSVIAPVVAGQIVGFGLAGYRLAILALLEIKGRGDK
notes: as for B1
Km [8]: 133.97 µM | Vmax [8]: 130 µM/min | kcat [8]: 5.33 s⁻¹ | kcat/Km [8]: 40000 M⁻¹ s⁻¹

B8: DHQase 3028 (Thermodesulfobium narugense DSM 14796) (protein)
chain: MKKILVINGPNLNMLGTREPNIYGSITLHGLEELILNFAKELEMKVDFFQSNHEGDIIDKIHRTFDAYDAFIINPGAFTHYSYAIRDAIASITIPVIEVHLSNVHAREEFRKSSVIAPVCLGQISGLGELSYIAAIVALDKYLQKLEKRA
notes: as for B1
Km [9]: 180.72 µM | Vmax [9]: 69.6 µM/min | kcat [9]: 6.88 s⁻¹ | kcat/Km [9]: 40000 M⁻¹ s⁻¹

B9: DHQase 3014 (Nocardia brasiliensis ATCC 700358) (protein)
chain: MSAPGPILVLNGPNLNMLGTRQPEVYGSATLDDVVELCRQTAERYGREIAAFQSNSEGALIDRIHRARGVESAIVINPGGLTHTSVALRDALVIPEVPIVEVHISNVHAREEFRHHSYISPIATAVVAGMGIQGYAAAIEFLVRSA
notes: as for B1
Km [10]: 151.51 µM | Vmax [10]: 216 µM/min | kcat [10]: 3.83 s⁻¹ | kcat/Km [10]: 30000 M⁻¹ s⁻¹

B10: DHQase 3026 (Natranaerobius thermophilus JW/NM-WN-LF) (protein)
chain: MKIYVIHGPNINMLGNRESEHYGTQTLEELNSSIIKESESLGIEVEIFQFNSEGDIITKLQEANNYAQGVIINPGAYTHYSIAIRDAIAAISKPVIEVHISNIFNRESFRSHSVIAPVAKGQISGMGFAGYLLALNAFIKTKEG
notes: as for B1
Km [11]: 304.54 µM | Vmax [11]: 177 µM/min | kcat [11]: 3.8 s⁻¹ | kcat/Km [11]: 10000 M⁻¹ s⁻¹

B11: DHQase 3024 (Halanaerobium hydrogeniformans) (protein)
chain: MQKVAVIHGPNLNMLGLREPEIYGKNNLEMVNKNLKRKAKELDFEIEIMQSNHEGEIVDYLHQNFEQLDGVIINPGGLTHTSVILRDALAAVRLPVIEVHISNIHKREEFRHKSLTAAVAVGQITGLGVKGYTLALEGLKSILGREKY
notes: as for B1
Km [12]: 526.07 µM | Vmax [12]: 374 µM/min | kcat [12]: 75.1 s⁻¹ | kcat/Km [12]: 140000 M⁻¹ s⁻¹

B12: DHQase 3030 (Metallosphaera cuprina Ar-4) (protein)
chain: MFSLMKPEIVVSLPVTRPDDLNKVNKIDGLVELRLDYSTELPNPEELIPFKHKVLVTLRDKEEGGRIKYDVDFKAKYLERLNELGILYDVEASFLERRKIEYVGKIVSAHYFSSLPSTEEIDQLFRKYEGAYTIKVAVASLPGYRELLSYVSGKPNATFMPMSNDPIERLAFSLLGSKLLYTYLESPTAQGQLSYTQAKQILECIFK
notes: as for B1
Km [13]: 92.76 µM | Vmax [13]: 68.4 µM/min | kcat [13]: 3.86 s⁻¹ | kcat/Km [13]: 40000 M⁻¹ s⁻¹

B13: DHQase 3037 (Paramagnetospirillum magneticum AMB-1) (protein)
chain: MLGTRQPELYGTETLADIEAACRTHADSLGLTVEFSQTNMEGELVTSIQKCRGRAVGIIINAGAYTHTSVAILDALLAAEVPAIEVHLSNIHQRDSFRHHSYVAKAAKGMICGLGSHGYILALDALARLIKGNAEA
notes: as for B1
Km [14]: 119.97 µM | Vmax [14]: 232 µM/min | kcat [14]: 73.2 s⁻¹ | kcat/Km [14]: 610000 M⁻¹ s⁻¹

B14: DHQase 3007 (Gluconobacter oxydans 621H) (protein)
chain: MTAPKVLSRGQMKRPLITVLNGPNLNMLGLRQPGIYGHATLDDVEQVCIQAAERLDVAIDFRQTNGEGELVSWVQECRGRADGIVINPAAYGHTSIALLDALLAVELPVIEVHISNIHRREPFRHHTYVSQAAIGVICGLGVRGYAHALQAITDMIEDEG
notes: as for B1
Km [15]: 777.75 µM | Vmax [15]: 146 µM/min | kcat [15]: 77.1 s⁻¹ | kcat/Km [15]: 100000 M⁻¹ s⁻¹
